T1: human Nectin-4 (human, UniProt Q96NY8 32-349)
T1 construct: a Gly32-Ser349 FLAG construct is described only under the SPR assay; also called PVRL4
T1 sequence (looked up): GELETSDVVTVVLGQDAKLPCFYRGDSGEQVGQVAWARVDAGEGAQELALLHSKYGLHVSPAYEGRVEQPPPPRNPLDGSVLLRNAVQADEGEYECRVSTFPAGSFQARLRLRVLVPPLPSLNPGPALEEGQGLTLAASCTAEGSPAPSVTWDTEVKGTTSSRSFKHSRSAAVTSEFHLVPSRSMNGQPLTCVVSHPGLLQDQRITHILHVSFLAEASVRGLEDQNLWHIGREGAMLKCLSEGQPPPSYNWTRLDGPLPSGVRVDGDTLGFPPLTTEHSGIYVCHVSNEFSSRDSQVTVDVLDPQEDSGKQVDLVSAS

Among the data in US20210269480A1 (published 2021) are Ki values, retold here.

*1 amine or outer side, *2 acyl side, *3 side chain or, on linkers, in order; H or OH if unused. Bridges are numbered along the chain shown (N, C = ends). Where no end group is shown, it is not given here. [ ]: non-standard residue; d: D form. TATA = O=C(CC[*:1])N1CN(C(=O)CC[*:2])CN(C(=O)CC[*:3])C1; Phe(4-COOH) = N[C@@H](Cc1ccc(C(=O)O)cc1)C(=O)O; hArg = N=C(N)NCCCC[C@H](N)C(=O)O; 2Pal = N[C@@H](Cc1ccccn1)C(=O)O; Aze = O=C(O)[C@@H]1CCN1; βAla = NCCC(=O)O; Sar = CNCC(=O)O

For this assay, the target named is T1, human Nectin-4. Put plainly: FP competition, tracer SEQ ID NO 217. The method, then:
Peptides were diluted to an appropriate concentration in assay buffer as described in the direct binding assay with a maximum of 5% DMSO, then serially diluted 1 in 2. […] Measurements were conducted as for the direct binding assay, however the gain was determined prior to the first measurement. Data analysis was in Systat Sigmaplot version 12.0 where the mP values were fit to a user defined cubic equation to generate a Ki value: […]
As a reminder, the Ki is the dissociation constant of the complex between target and ligand, obtained from inhibition or displacement. Molecule ACPFGCMRNWSWPIWCA (linker 2-6-16 via TATA, also called 80-09-02-N003) [BCY429] registered a Ki of 42.6 nM.
With Ac-QKWCAPL[dA]DYWCNRIC (linker 4-12-16 via TATA) [BCY7639] the figure was 490 nM; with Ac-QKWCAPLSDYWC[dA]RIC (linker 4-12-16 via TATA) [BCY7643], 19 nM.
ACWPLDPYWCGRICA (linker 2-10-14 via TATA) [BCY430] came in with a Ki of 310 nM.
In turn, [βAla][Sar][Sar][Sar][Sar][Sar]CPF[dD]CM[hArg]NWSWPIWC (linker 7-11-21 via TATA) [BCY7556] showed a Ki of 26.1 nM.
Consider {Ac-βAla}-[Sar][Sar][Sar][Sar][Sar]CPF[dD]CM[hArg]NWSWPIWC (linker 6-10-20 via TATA) [BCY7558], for which the Ki was determined as 21.9 nM.
Ac-CPF[dD]CM[hArg]NWSTPKWC (linker 1-5-15 via TATA) [BCY8085] came in with a Ki of 15.1 nM.
With Ac-CPF[dD]CK[hArg]NWSTPIWC (linker 1-5-15 via TATA) [BCY7821] the figure was 84 nM; with Ac-CPF[dD]CL[hArg]NWSTPPWC (linker 1-5-15 via TATA) [BCY8038], 8 nM; with Ac-CPF[dD]CM[hArg]KWSTPIWC (linker 1-5-15 via TATA) [BCY7822], 27 nM.
Turning to {Ac-βAla}-[Sar][Sar][Sar][Sar][Sar]CPF[dA]CM[hArg]NWSWPIWC (linker 6-10-20 via TATA) [BCY7559], the Ki came out at 17 nM.
Regarding Ac-CPF[dD]CL[hArg]NWSTPIWC (linker 1-5-15 via TATA) [BCY8039], the Ki amounted to 21.4 nM.
[βAla][Sar][Sar][Sar][Sar][Sar]CPF[dA]CM[hArg]NWSWPIWC (linker 7-11-21 via TATA) [BCY7557] had a Ki of 22.5 nM.
With Ac-CPF[dD]CM[hArg]NWSTPPWC (linker 1-5-15 via TATA) [BCY8036] the figure was 7.5 nM.
With Ac-CPY[dD]CM[hArg]NWSTPIWC (linker 1-5-15 via TATA) [BCY8040] the figure was 10.8 nM.
With Ac-CPFGCM[hArg]NWSWPIWC (linker 1-5-15 via TATA) [BCY7660] the figure was 26.2 nM; with Ac-C[Aze]FGCMKNWSWPIWC (linker 1-5-15 via TATA) [BCY7608], 42 nM; with Ac-CPFGCMKNWSWPIWC (linker 1-5-15 via TATA, also called 80-09-02-N008) [BCY7390], 17.1 nM.
For the molecule Ac-CPFGCMKNWSDPIWC (linker 1-5-15 via TATA, also called 80-09-02-N022) [BCY7540], the Ki is 357 nM.
Turning to Ac-CPFGCMKNWSWPIYC (linker 1-5-15 via TATA) [BCY7597], the Ki is 169 nM.
In the case of Ac-CPFGCMKNWSWPIFC (linker 1-5-15 via TATA) [BCY7596], the affinity, expressed as Ki, was 353 nM.
Molecule Ac-CPFGCMKNWSTPIWC (linker 1-5-15 via TATA, also called 80-09-02-N054) [BCY7665] yielded a Ki of 24.1 nM.
As for Ac-CPFGCMPNWSWPIWC (linker 1-5-15 via TATA) [BCY7614], the Ki was 21 nM.
Ac-CPFGCMKHWSWPIWC (linker 1-5-15 via TATA, also called 80-09-02-N051) [BCY7662]: the affinity corresponds to a Ki of 14.8 nM.
As for Ac-CPFGCMKNWSFPIWC (linker 1-5-15 via TATA) [BCY7589], the figure is 34.5 nM; as for Ac-CPFGCMKNWSYPIWC (linker 1-5-15 via TATA) [BCY7590], 38.5 nM; as for Ac-CPFGCMKDWSWPIWC (linker 1-5-15 via TATA, also called 80-09-02-N050) [BCY7661], 29.4 nM.
For the molecule Ac-CPFGCMDNWSWPIWC (linker 1-5-15 via TATA, also called 80-09-02-N048) [BCY7659], the Ki is 77.9 nM.
In turn, Ac-CPFGCMSNWSWPIWC (linker 1-5-15 via TATA, also called 80-09-02-N047) [BCY7658] showed an inhibitory constant (Ki) of 33.6 nM.
Turning to Ac-CGFGCMKNWSWPIWC (linker 1-5-15 via TATA) [BCY7607], the Ki was determined as 77 nM.
As for Ac-CP[2Pal]GCMKNWSWPIWC (linker 1-5-15 via TATA) [BCY7620], the figure is 246 nM; as for Ac-[Phe(4-COOH)]CPFGCMKNWSWPIWC (linker 2-6-16 via TATA) [BCY7656], 71.9 nM; as for Ac-[dD]CPFGCMKNWSWPIWC (linker 2-6-16 via TATA) [BCY7606], 34 nM.
ACPFGCMKNWSWPIWCA (linker 2-6-16 via TATA, also called 80-09-02-N002) [BCY428] came in with a Ki of 61 nM.
As for Ac-CPFK(Ac)CMKNWSWPIWC (linker 1-5-15 via TATA) [BCY7611], the figure is 205 nM.
QKWCAPLSXYWCNRIC (N-terminal Ac; TATA on 3 Cys) [BCY7640]: the Ki was found to be 86 nM.
Ac-QKWCAPLSDYWCNRIC (linker 4-12-16 via TATA) [BCY7392]: the Ki came out at 27.2 nM.
Consider Ac-QK[dA]CAPLSDYWCNRIC (linker 4-12-16 via TATA) [BCY7636], for which the affinity, expressed as Ki, was 522 nM.
Molecule Ac-QKWCAPLADYWCNRIC (linker 4-12-16 via TATA) [BCY7627] returned a Ki of 101 nM.
As to Ac-QAWCAPLSDYWCNRIC (linker 4-12-16 via TATA) [BCY7623], the affinity corresponds to a Ki of 21 nM.
Consider Ac-QKWCAALSDYWCNRIC (linker 4-12-16 via TATA) [BCY7625], for which the Ki was found to be 141 nM.
In turn, Ac-QKACAPLSDYWCNRIC (linker 4-12-16 via TATA) [BCY7624] showed a Ki of 571 nM.
For Ac-QKWCAPLSDYWCNAIC (linker 4-12-16 via TATA) [BCY7632], the affinity, expressed as Ki, was 123 nM.
Take Ac-QKWCAPLSDYWCARIC (linker 4-12-16 via TATA) [BCY7631]: the affinity corresponds to a Ki of 19 nM.
In turn, Ac-Q[dA]WCAPLSDYWCNRIC (linker 4-12-16 via TATA) [BCY7635] showed a Ki of 15.2 nM.
Ac-Q[dD]WCAPLSDYWCNRIC (linker 4-12-16 via TATA) [BCY7993] had a Ki of 38 nM.
As for Ac-[dA]KWCAPLSDYWCNRIC (linker 4-12-16 via TATA) [BCY7634], the affinity, expressed as Ki, was 24 nM.
As to Ac-AKWCAPLSDYWCNRIC (linker 4-12-16 via TATA) [BCY7622], the affinity, expressed as Ki, was 31 nM.
